Source: patent US20100311820, “NUCLEIC ACID MODULATORS OF GLYCOPROTEIN VI” (Regado Biosciences, Inc, published 2010)

Experiments:
[1] = target: T1, Glycoprotein VI extracellular domain (Gln21-Lys267) (Homo sapiens) (UniProt Q9HCN6); experiment: filter
T1 sequence: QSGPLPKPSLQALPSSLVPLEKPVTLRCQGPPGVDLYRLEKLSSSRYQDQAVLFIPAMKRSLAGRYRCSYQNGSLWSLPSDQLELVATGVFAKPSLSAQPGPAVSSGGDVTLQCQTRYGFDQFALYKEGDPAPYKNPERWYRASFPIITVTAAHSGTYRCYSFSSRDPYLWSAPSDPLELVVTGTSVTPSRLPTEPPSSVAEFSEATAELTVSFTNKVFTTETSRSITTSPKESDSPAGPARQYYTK

[2] = target: T2, Glycoprotein VI extracellular domain (Gln21-Lys267) (Homo sapiens, UniProt Q9HCN6 SEQ:1-247); experiment: filter; p374 states 2-4 nM; buffer F (150 mM NaCl, 2 mM CaCl2), 37 C; details: tags: C-terminal His6; R&D Systems 3627-GP; label: 5'-32P
T2 chain: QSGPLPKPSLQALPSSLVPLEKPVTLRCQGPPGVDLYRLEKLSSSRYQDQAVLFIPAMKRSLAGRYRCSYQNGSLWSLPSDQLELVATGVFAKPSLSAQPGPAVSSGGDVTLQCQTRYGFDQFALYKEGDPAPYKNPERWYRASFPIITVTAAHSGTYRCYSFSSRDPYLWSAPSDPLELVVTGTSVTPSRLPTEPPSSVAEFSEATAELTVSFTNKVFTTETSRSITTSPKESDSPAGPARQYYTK
Procedure: (§1) Enrichment of the ligand libraries for GPVI was monitored in direct binding studies utilizing radiolabeled ligand RNA from respective rounds of SELEX and soluble GPVI. Binding studies were performed with trace P³² end-labeled RNA added to serial dilutions of GPVI in Binding Buffer F. To prepare radiolabeled RNAs for binding studies, one hundred picomoles of RNA was dephosphorylated with Bacterial Alkaline Phopshatase at 50° C. for 1 hour. The reaction was phenol:chloroform:isoamyl alcohol (25:24:1) extracted, chloroform: isoamyl:alcohol (24:1) extracted, and ethanol precipitated. Three pmoles of dephosphorylated RNA was end labeled with T4 Poylnucleotide Kinase with supplied buffer, and 20 μCi of γ-P³²-ATP and subsequently cleaned with a Biorad MicroBio Spin P-30 spin column. End-labeled RNA was diluted to a final concentration of 2000 cpm/μL and heat denatured at 65° C. for 5 minutes. RNA and GPVI dilutions were equilibrated at 37° C. prior to use. RNA (5 μL) was added to varying concentrations of GPVI (15 μL) at 37° C. and incubated together for 5 to 15 minutes. […] The membranes were exposed to a phosphorimager screen, scanned, and quantitated with a Molecular Dynamics Storm 840 Phosphorimager. The fraction bound was calculated by dividing the counts on the nitrocellulose by the total counts and adjusting for the background. […]

[3] = target: T2, Glycoprotein VI extracellular domain …; experiment: competition; competition with radiolabeled parent ligand; details: tags: C-terminal His6; R&D Systems 3627-GP
[4] = target: T2, Glycoprotein VI extracellular domain …; experiment: competition; 5' linker ligands assayed by competition; details: tags: C-terminal His6; R&D Systems 3627-GP
[5] = target: T2, Glycoprotein VI extracellular domain …; experiment: competition; competition with radiolabeled parent; details: tags: C-terminal His6; R&D Systems 3627-GP
[6] = target: T2, Glycoprotein VI extracellular domain …; experiment: filter; buffer F, 37 C; details: tags: C-terminal His6; R&D Systems 3627-GP; label: 5'-32P
[7] = target: T2, Glycoprotein VI extracellular domain …; experiment: filter; buffer F, 37 C; details: tags: C-terminal His6; R&D Systems 3627-GP; label: 5'-32P
Procedure: as §1, with “minutes.” for “minutes. RNA and GPVI dilutions were equilibrated at 37° C. prior to use. RNA (5 μL) was added to varying concentrations of GPVI (15 μL) at 37° C. and incubated together for 5 to 15 minutes.”
(§2) The affinity of each of the anti-GPVI ligands for GPVI was determined by direct binding studies using radiolabeled trace ligand RNA and soluble GPVI, per the binding methodology described above in Example 1.

[8] = target: T2, Glycoprotein VI extracellular domain …; experiment: filter; text p359 names it EF-3 T2mut8; details: tags: C-terminal His6; R&D Systems 3627-GP; label: 5'-32P
Procedure: as §1

[9] = target: T2, Glycoprotein VI extracellular domain …; experiment: filter; text p359 names it EF-3 T2 mut9; details: tags: C-terminal His6; R&D Systems 3627-GP; label: 5'-32P
Procedure: as §1

[10] = target: T2, Glycoprotein VI extracellular domain …; experiment: filter; text p359 names it EF-3 T2mut10; details: tags: C-terminal His6; R&D Systems 3627-GP; label: 5'-32P
Procedure: as §1

[11] = target: T2, Glycoprotein VI extracellular domain …; experiment: filter; details: tags: C-terminal His6; R&D Systems 3627-GP; label: 5'-32P
Procedure: Enrichment of the ligand libraries for GPVI was monitored in direct binding studies utilizing radiolabeled ligand RNA from respective rounds of SELEX and soluble GPVI. Binding studies were performed with trace P³² end-labeled RNA added to serial dilutions of GPVI in Binding Buffer F. To prepare radiolabeled RNAs for binding studies, one hundred picomoles of RNA was dephosphorylated with Bacterial Alkaline Phopshatase at 50° C. for 1 hour. The reaction was phenol:chloroform:isoamyl alcohol (25:24:1) extracted, chloroform: isoamyl:alcohol (24:1) extracted, and ethanol precipitated. Three pmoles of dephosphorylated RNA was end labeled with T4 Poylnucleotide Kinase with supplied buffer, and 20 μCi of γ-P³²-ATP and subsequently cleaned with a Biorad MicroBio Spin P-30 spin column. End-labeled RNA was diluted to a final concentration of 2000 cpm/μL and heat denatured at 65° C. for 5 minutes. RNA and GPVI dilutions were equilibrated at 37° C. prior to use. RNA (5 μL) was added to varying concentrations of GPVI (15 μL) at 37° C. and incubated together for 5 to 15 minutes. The complexed RNA/GPVI protein mixture was then loaded over a Protean BA85 nitrocellulose membrane, overlayed on a Genescreen Plus Nylon membrane, in a 96 well vacuum manifold system with washing. The membranes were exposed to a phosphorimager screen, scanned, and quantitated with a Molecular Dynamics Storm 840 Phosphorimager. The fraction bound was calculated by dividing the counts on the nitrocellulose by the total counts and adjusting for the background. Results for binding of enriched ligand libraries from round 10 E2 and round 10 EF of the SELEX as compared to the GPVI-naïve starting ligand library are shown in FIG. 3.

[12] = target: T2, Glycoprotein VI extracellular domain …; experiment: filter; text: family range about 11 to 50 nM, EF-1 lowest affinity; details: tags: C-terminal His6; R&D Systems 3627-GP; label: 5'-32P
Procedure: as §1, with “minutes.” for “minutes. RNA and GPVI dilutions were equilibrated at 37° C. prior to use. RNA (5 μL) was added to varying concentrations of GPVI (15 μL) at 37° C. and incubated together for 5 to 15 minutes.”
as §2

[13] = target: T2, Glycoprotein VI extracellular domain …; experiment: filter; equivalent to full-length EF-1; details: tags: C-terminal His6; R&D Systems 3627-GP; label: 5'-32P
Procedure: as §1

Molecule: GGGAGGACGACGCGUCUGGCAUAAGCCUCCC [RB536]
- Kd ([1]; RB535 with 2'-OMe G9): > 40 nM

Molecule: GGAGGACGGCGCGCCUGGCAUAAGCCUCC [RB537]
- Kd ([1]; RB526 pattern, hexaethylene glycol spacer between G11 and C12, 3' idT): < 10 nM

Molecule: GGAGGACGGCGCGCCUGGCAUAAGCCUCC [RB521]
- Kd ([1]; RB520 pattern, hexaethylene glycol spacer between G11 and C12, 3' idT, buffer F, 37 C): 6 nM

Molecule: GGAGGACGGCGCGCCUGGCAUAAGCCUCC [RB507]
- Kd ([1]; RB490 pattern, hexaethylene glycol spacer between G11 and C12, 3' idT): < 10 nM

Molecule: GGAGGACGGCGCGCCUGGCAUAAGCCUCC [RB540]
- Kd ([1]; 2'-OH G1, 2'-deoxy A6,G8,G9, 2'-F C7,C14,C15,U16,C19,U21, all others 2'-OMe, hexaethylene glycol spacer between G11 and C12, 3' idT, buffer F, 37 C): 15 nM

B1: RB566 (ssRNA)
RNA: GGAGGACGGCGCGCCUGGCAUAAGCCUCC
modifications: RB540 with PS G8-G9 and G9-C10
- Kd [2]: ~2.45 nM

B2: RB571 (ssRNA)
RNA: GGAGGACGGCGCGCCUGGCAUAAGCCUCC
modifications: RB567 with 5' branched 40 kDa PEG
- Kd [3]: ~5 nM

B3: RB508 (ssRNA)
RNA: GGGAGGACGGCGCGCCUGGCAUAAGCCUCCC
modifications: RB490 with 5' hexylamino linker
- Kd [4]: < 10 nM

B4: RB560 (ssRNA)
RNA: GGAGGACGGCGCGCCUGGCAUAAGCCUCC
modifications: RB549 with 2'-OMe G1 and 5' hexylamino linker
- Kd [5]: < 10 nM

B5: RB567 (ssRNA)
RNA: GGAGGACGGCGCGCCUGGCAUAAGCCUCC
modifications: RB566 with 2'-OMe G1 and 5' hexylamino linker
- Kd [5]: < 10 nM

B6: RB520 (ssRNA)
RNA: GGGAGGACGGCGCGCCUGGCAUAAGCCUCCC
modifications: RB490 with 2'-OMe G6,C15,A21,A23,A24,G25
- Kd [6]: ~6 nM

B7: RB569 (ssRNA)
RNA: GGAGGACGGCGCGCCUGGCAUAAGCCUCC
modifications: RB560 with 5' branched 40 kDa PEG
- Kd [5]: < 10 nM

B8: EF-2 (RB427) (ssRNA)
RNA: GGGAGGACGAUGCGGUGCCAAAACACCCGUCUUGCAUAAGCCUCCUACGGCAACUCAGACGACUCGCUGAGGAUCCGAGA
modifications: 2'-F C and U; 2'-OH A and G
- Kd [7]: 15.5 nM

B9: EF-3 T5 mut8 (ssRNA)
RNA: GGGAGGACGGCGAUCACACGCCUGGCGUAAGCCUCCC
modifications: 2'-F C and U; 2'-OH A and G
- Kd [8]: 15.5 nM

B10: EF-3 T5 mut9 (ssRNA)
RNA: GGGAGGACGGCGAUCACACGCCUUGCAUAAGCCUCCC
modifications: 2'-F C and U; 2'-OH A and G
- Kd [9]: 15.5 nM

B11: EF-3 T5 mut10 (ssRNA)
RNA: GGGAGGACGGCGAUCACACGCCUGGCAUAAGCCUCCC
modifications: 2'-F C and U; 2'-OH A and G
- Kd [10]: 15.5 nM

B12: RB549 (ssRNA)
RNA: GGAGGACGGCGCGCCUGGCAUAAGCCUCC
modifications: RB540 with PS G8-G9
- Kd [6]: ~6.48 nM

B13: RB448 (ssRNA)
RNA: GGGAGGACGGCGCUAACGCCUGGCAUAAGCCUCCC
modifications: 2'-F C and U; 2'-OH A and G; 3' idT
- Kd [6]: ~14.5 nM

B14: RB542 (ssRNA)
RNA: GGAGGACGGCGCGCCUGGCAUAAGCCUCC
modifications: RB540 with 2'-OMe G1 and 5' hexylamino linker
- Kd [5]: 15.5 nM

B15: RB548 (ssRNA)
RNA: GGAGGACGGCGCGCCUGGCAUAAGCCUCC
modifications: RB540 with PS C7-G8
- Kd [11]: 15.5 nM

B16: RB551 (ssRNA)
RNA: GGAGGACGGCGCGCCUGGCAUAAGCCUCC
modifications: RB540 with 2'-OH G8
- Kd [11]: 15.5 nM

B17: RB552 (ssRNA)
RNA: GGAGGACGGCGCGCCUGGCAUAAGCCUCC
modifications: RB551 with PS G5-A6
- Kd [11]: 15.5 nM

B18: RB553 (ssRNA)
RNA: GGAGGACGGCGCGCCUGGCAUAAGCCUCC
modifications: RB551 with PS A6-C7
- Kd [11]: 15.5 nM

B19: RB570 (ssRNA)
RNA: GGAGGACGGCGCGCCUGGCAUAAGCCUCC
modifications: RB542 with 5' branched 40 kDa PEG
- Kd [5]: 15.5 nM

B20: RB453 (ssRNA)
RNA: GGGAGGACGGCGCUAACGCCUGGCAUAAGCCUCCC
modifications: RB448 with 2'-OMe throughout Stem 1
- Kd [11]: < 10 nM

B21: EF-1 (RB424) (ssRNA)
RNA: GGGAGGACGAUGCGGCAAUCGAAGCUGCAUCCAGCGUAAGCCUUCCAGGGAUCGUCAGACGACUCGCUGAGGAUCCGAGA
modifications: 2'-F C and U; 2'-OH A and G
- Kd [12]: > 40 nM

B22: EF-1 T1 (RB426) (ssRNA)
RNA: GGGAGGACGAUGCGGCAAUCGAAGCUGCAUCCAGCGUAAGCCUUCC
modifications: 2'-F C and U; 2'-OH A and G
- Kd [13]: > 40 nM

B23: EF-3 T3 (RB445) (ssRNA)
RNA: GGGAGGACGUGCGGAUCACACCGCGCUUGCGUAAGCCUCCC
modifications: 2'-F C and U; 2'-OH A and G
- Kd [11]: > 40 nM

B24: EF-31 T4 (RB441) (ssRNA)
RNA: GGGAGGACGUGCGGUCUAAGCUGCGCUGGCAUAAGCCUCCC
modifications: 2'-F C and U; 2'-OH A and G
- Kd [11]: > 40 nM

B25: EF-31 T8 (ssRNA)
RNA: GGGAGGACGGCCUAAGCCUGGCAUAAGCCUCCC
modifications: 2'-F C and U; 2'-OH A and G
- Kd [11]: > 40 nM

B26: RB517 (ssRNA)
RNA: GGGAGGACGGCGCGCCUGGCAUAAGCCUCCC
modifications: RB490 with 2'-OMe G6,A7,C8
- Kd [11]: > 40 nM

B27: RB523 (ssRNA)
RNA: GGGAGGACGGCGCGCCUGGCAUAAGCCUCCC
modifications: RB520 with 2'-OMe A7,G9
- Kd [11]: > 40 nM

B28: RB462 (ssRNA)
RNA: GGGAGGACGGCGCUAACGCCUGGCAUAAGCCUCCC
modifications: RB448 with 2'-OMe G23,C30
- Kd [11]: < 10 nM

B29: RB527 (ssRNA)
RNA: GGGAGGACGGCGCGCCUGGCAUAAGCCUCCC
modifications: RB524 with 2'-OMe A7,G9
- Kd [11]: > 40 nM

B30: RB528 (ssRNA)
RNA: GGGAGGACGGCGCGCCUGGCAUAAGCCUCCC
modifications: RB524 with 2'-OMe A7, 2'-deoxy G9
- Kd [11]: > 40 nM
